According to patent US20230183661A1, “BICOMPATIBLE PEPTIDEBIOCOMPATIBLE PEPTIDES FOR INHIBITION OF AGGREGATION OF B-AMYLOID PROTEIN” (Catholic University Industry Academic Cooperation Foundation, priority 2017, published 2023):

Target: β-amyloid (Aβ) overexpressed in nerve cells (UniProt P05067)
Experiment: Co-IP from N2a cells, relative score

B1: Peptide 4 (β 1-3 fragment of SOD1) (peptide)
peptide: ATKAVCVLKGDGPVQGIINFEQKESNGPVKVWGSIKGLT
With B1 the Binding strength with β-amyloid was 1.
